We go through 1 substance from PMC5364462.

For this assay, the target named is Myr-GCN4-GFP. Nature of the assay: fluorescence correlation spectroscopy (FCS); GFP-tagged membrane control proteins in live cells, same instrument and illumination conditions; cell line not stated; median molecular brightness.

Myr-GCN4-GFP registered a median molecular brightness of 746 cpsm.
